In a protein production outcome set (Wang et al. 2014):

Assay: label from the status in PepcDB records

Sequence	protein production
VSIPANNSPVRLALIGAGRWGKNYIRTIAGLPGAALVRLASSNPDNLALVPPGCVIESDWRSVVSAPEVEAVIIATPPATHAEITLAAIASGKAVLVEKPLTLDLAEAEAVAAAAKATGVMVWVEHTQLFNPAWEALKADLTSIGPILAVRSEAGNHGPYRPGGVPMLWDWGAHDVSMVLDLMGRDPDSTSASWAARGEKDGGEAGDVTLTLAFSTVEAHIRLCNTMDKCRRLAVFGEAGTLVMDDRATDKLTLHPPQPDGNWPVGQGHALTVTDEMPLTRAVRLFAGAVRQPEPGPSPLELGLRVVRVLGACS	not failed
SIDLRLQYLATRELRNAIAEQDAKAGSLVIMDVKTGEVLAMVNQPTYNPNNRRSMFPAAMRNRAIIDVFEPGSTVKPISMSAALQSGRWKPTDKVEVYPGSLQIGRYTIKDVSRSEGPILDLTGILINSSNVGMSKIAFDIGGEAIYRVMSQVGLGQYTGLGFPGERVGNLPNHREWRKAETATLSYGYGVSVTALQLVHAYAALANDGKMVPLSIIKVDKTPEAVQAIPKEVAETVQGMLQQVIEAPRGVFRAQVPFYHVAGKSGTARKATVGAKGYTENAYRSLFAGFGPMSDPRYAIVVVIDEPRKGGYFGGLVSAPVFSNVMSGTLRLMNVPPDNLPPPAPAPAVPSQVNAAAAKGGRG	failed
MGWLFLLLAVASEAFSHVALKATDGLSHLIPNVIVITGHLGAFYFLSQAMKTLPVGIAHASWAGLAIIAVTLISSAFYHQHLDNKIWLGIGFISIGIAIINLSSTPHVH	failed
MKQEEDKFTGLPENAFRELKAGEVYNPLMSPSKNYPEVNFWSVTWGIAMAILFSAAAAYLGLKVGQVFEAAIPIAIIAVGVSGAAKRKNALGENVIIQSIGACSGVIVAGAIFTLPALYILQVKYPEMTVSFMQVFISSLLGGVLGILFLIPFRKYFVSDMHGKYPFPEATATTQVLVSGEKSGSQAKPLLMAGMIGGLYDFIVATFGWWNENFTTRVCGAGEMLAEKAKLVFKVNTGAAVLGLGYIVGLKYASIICAGSLAVWWIIIPGMSAIWGDSVLNAWNPEITSTVGMMSPEEIFKYYAKSIGIGGIAMAGVIGIIRSWGIIKSAVGLAAKEMGGKGNVEKNIVRTQRDLSMKIIAIGSILTLILIVLFFYFDIMQGNIVHTLVAIALVAGISFLFTTVAANAIAIVGTNPVSGMTLMTLILASVVMVAVGLKGPSGMVAALVMGGVVCTALSMAGGFITDLKIGYWLGSTPAKQETWKFLGTIVSAATVGGVMIILNKTYGFTSGALAAPQANAMAAVIEPLMSGVGAPWLLYGIGAILAIVLTFFKIPALAFALGMFIPLELNVPLVVGGAVNWYVTSRSKDTALNTERGEKGTLLASGFIAGGALMGVVSAAMRFGGINLVNEAWLNNTWSEVLALGAYALLILYFIKASMKVK	failed
MKKLFMSAVALLFAGALWAQENPLWMRHCAISPDGTTIAFTYKGDIFTVPVSGGKATQITTNPAFDTTPIWSPDSKQIAFASDRMGSMDVFIVSKDGGEPRRLTTFSGGETPVAFTDAGHILFTADIMPSTEDAGFPSNGQFQQIYQIPVSGGRPVMFSSMPMECISINKEGTILYQDKKGYEDYWRKHQKSPIARDIWMLRPGQTPRYEKQTTFIGEDREPVWAPDGKSFYYLSEENGTFNVYQRTPGSDTSKQVTHHKQHPVRFLSMASNGNLCYGFDGEIYTLAPGGKPQKVSVKILSDRNDKDLIRQIKTSGATEMAVSPDGKEVAFILRGDVYVTSVEYKTTKQVTNTPCQERGIDFAPDGRTLVYASERGGLWQLYTSTIVRKDEKQFTYATELKEERLTNSDIASFNPKYSPDGKEIAFLENRTAIRVINLKTKKVRTVMDAQYQYSYSDGDQWFEWSPDSKWILSEFIGIGGWNNKDIVLLNADGKGEMHNLTESGYSDGNAKWVLGGKAMVWFSDRAGYRSHGSWGAQYDAYIMFFDVDAYDRFRMNKEDLALLEEAEKAEKAEKEKAEKKKKENKKDDKKKDAKEKNKKDGDEEKKEEVKPLKFDLDNRFDRIVRLTVNSSFMGDAVLTPKGDKLYYLAAFESGYDLWEHDLKENSTKILLKGVGGGSLLPDKKGENIFMCTGGGMKKIEIAGSKTTPIAFESFFDYQPGGERAYIFDHVWQQVDDKFYVKDLQGVDWPLYKKSYEKFLPYINNNYDFAELLSEMLGELNASHTGARYSGAGGALATAALGVFYDDTYNGDGLKIKEIIEQGPFTLKKTDVKPGCIIEKVDGTLIKKGEDYFPLFEGKVGRKVLLSVYDPATKKRFEETVKAISYGAQRELLYKRWVERNRKKVEELSGGRLGYVHIKGMDSQSFRKMYSELLGRYRNKEAVVVDVRHNGGGWLHDDVVTLLSGKEYQRFVPRGQYIGSDPFNKWLKPSCMLVCEDNYSNAHGTPYVYKTLGIGKLVGTPVAGTMTAVWWERQIDPSLVFGIPQVGCMDMQGNYLENHTLEPDVLIYNEPAASLKGEDAQLKAAVDCLLKELPKK	failed
